Experimental data published in PMC10524356.

Tests used:
[1] = molecular target: HIV-2 Gag polyprotein in immature particles (HIV-2 ROD); experiment: cryo-EM structure
[2] = molecular target: HIV-2 capsid (CA) protein carboxyl-terminal domain, CA residues 145-230 (HIV-2 ROD); experiment: crystal structure

| Substance | stoichiometry N [1] | stoichiometry N [2] |
| --- | --- | --- |
| HIV-2 Gag polyprotein in immature particles (natural protein) | 6 |  |
| HIV-2 capsid (CA) protein carboxyl-terminal domain, CA residues 145-230 (domain or fragment) |  | 2 |
